Values quoted from earlier work in PMC10474108.

Target: tau (full-length, nonphosphorylated) (Homo sapiens) (UniProt P10636)
Chain of UniProt P10636 (P10636 2-758): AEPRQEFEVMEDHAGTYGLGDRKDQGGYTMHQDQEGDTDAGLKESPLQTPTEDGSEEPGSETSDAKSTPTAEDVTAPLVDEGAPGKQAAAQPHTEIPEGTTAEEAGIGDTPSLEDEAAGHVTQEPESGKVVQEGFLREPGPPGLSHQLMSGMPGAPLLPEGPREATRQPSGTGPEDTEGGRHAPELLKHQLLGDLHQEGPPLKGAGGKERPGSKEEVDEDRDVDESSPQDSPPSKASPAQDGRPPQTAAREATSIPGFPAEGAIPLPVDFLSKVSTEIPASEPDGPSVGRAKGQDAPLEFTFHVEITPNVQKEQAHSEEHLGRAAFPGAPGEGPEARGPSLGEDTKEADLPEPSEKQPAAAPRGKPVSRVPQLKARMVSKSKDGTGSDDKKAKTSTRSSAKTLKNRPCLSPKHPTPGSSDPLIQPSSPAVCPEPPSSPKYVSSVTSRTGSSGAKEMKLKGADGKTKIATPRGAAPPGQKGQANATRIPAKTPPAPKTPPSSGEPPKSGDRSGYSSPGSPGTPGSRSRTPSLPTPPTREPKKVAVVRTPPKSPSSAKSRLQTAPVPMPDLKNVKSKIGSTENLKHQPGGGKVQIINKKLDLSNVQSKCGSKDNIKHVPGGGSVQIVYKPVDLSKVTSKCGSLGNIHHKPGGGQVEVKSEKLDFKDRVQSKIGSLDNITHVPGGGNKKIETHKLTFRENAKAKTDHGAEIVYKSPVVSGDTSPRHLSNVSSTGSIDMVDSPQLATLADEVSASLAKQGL

LRP1 (from UniProt Q07954)
Kd: 60 nM
